Sequences and labels used below:
B1: Compound No. 50 (peptide)
peptide: {CH2CO}-F[NMeA]N[Aze]HL[Sar]WSW[NMeNle][NMeNle]RCG-NH2
modifications: thioether N-14
SMILES: CCCC[C@H]1C(=O)N(C)[C@@H](CCCC)C(=O)N[C@@H](CCCNC(=N)N)C(=O)N[C@H](C(=O)NCC(N)=O)CSCC(=O)N[C@@H](Cc2ccccc2)C(=O)N(C)[C@@H](C)C(=O)N[C@@H](CC(N)=O)C(=O)N2CC[C@H]2C(=O)N[C@@H](Cc2c[nH]cn2)C(=O)N[C@@H](CC(C)C)C(=O)N(C)CC(=O)N[C@@H](Cc2c[nH]c3ccccc23)C(=O)N[C@@H](CO)C(=O)N[C@@H](Cc2c[nH]c3ccccc23)C(=O)N1C
B2: Compound No. 5 (peptide)
peptide: {CH2CO}-A[NMeA]NPHL[Sar]WSW[NMeNle][NMeNle]RCG-NH2
modifications: thioether N-14
SMILES: CCCC[C@H]1C(=O)N(C)[C@@H](CCCC)C(=O)N[C@@H](CCCNC(=N)N)C(=O)N[C@H](C(=O)NCC(N)=O)CSCC(=O)N[C@@H](C)C(=O)N(C)[C@@H](C)C(=O)N[C@@H](CC(N)=O)C(=O)N2CCC[C@H]2C(=O)N[C@@H](Cc2c[nH]cn2)C(=O)N[C@@H](CC(C)C)C(=O)N(C)CC(=O)N[C@@H](Cc2c[nH]c3ccccc23)C(=O)N[C@@H](CO)C(=O)N[C@@H](Cc2c[nH]c3ccccc23)C(=O)N1C
B3: Compound No. 14 (peptide)
peptide: {CH2CO}-F[NMeA]NPHL[dNMeA]WSW[NMeNle][NMeNle]RCG-NH2
modifications: thioether N-14
SMILES: CCCC[C@H]1C(=O)N(C)[C@@H](CCCC)C(=O)N[C@@H](CCCNC(=N)N)C(=O)N[C@H](C(=O)NCC(N)=O)CSCC(=O)N[C@@H](Cc2ccccc2)C(=O)N(C)[C@@H](C)C(=O)N[C@@H](CC(N)=O)C(=O)N2CCC[C@H]2C(=O)N[C@@H](Cc2c[nH]cn2)C(=O)N[C@@H](CC(C)C)C(=O)N(C)[C@H](C)C(=O)N[C@@H](Cc2c[nH]c3ccccc23)C(=O)N[C@@H](CO)C(=O)N[C@@H](Cc2c[nH]c3ccccc23)C(=O)N1C
B4: Compound No. 8 (peptide)
peptide: {CH2CO}-F[NMeA]APHL[Sar]WSW[NMeNle][NMeNle]RCG-NH2
modifications: thioether N-14
SMILES: CCCC[C@H]1C(=O)N(C)[C@@H](CCCC)C(=O)N[C@@H](CCCNC(=N)N)C(=O)N[C@H](C(=O)NCC(N)=O)CSCC(=O)N[C@@H](Cc2ccccc2)C(=O)N(C)[C@@H](C)C(=O)N[C@@H](C)C(=O)N2CCC[C@H]2C(=O)N[C@@H](Cc2c[nH]cn2)C(=O)N[C@@H](CC(C)C)C(=O)N(C)CC(=O)N[C@@H](Cc2c[nH]c3ccccc23)C(=O)N[C@@H](CO)C(=O)N[C@@H](Cc2c[nH]c3ccccc23)C(=O)N1C
B5: Compound No. 10 (peptide)
peptide: {CH2CO}-F[NMeA]NPAL[Sar]WSW[NMeNle][NMeNle]RCG-NH2
modifications: thioether N-14
SMILES: CCCC[C@H]1C(=O)N(C)[C@@H](CCCC)C(=O)N[C@@H](CCCNC(=N)N)C(=O)N[C@H](C(=O)NCC(N)=O)CSCC(=O)N[C@@H](Cc2ccccc2)C(=O)N(C)[C@@H](C)C(=O)N[C@@H](CC(N)=O)C(=O)N2CCC[C@H]2C(=O)N[C@@H](C)C(=O)N[C@@H](CC(C)C)C(=O)N(C)CC(=O)N[C@@H](Cc2c[nH]c3ccccc23)C(=O)N[C@@H](CO)C(=O)N[C@@H](Cc2c[nH]c3ccccc23)C(=O)N1C
B6: Compound No. 22 (peptide)
peptide: {CH2CO}-F[NMeA]NPHL[Sar]WSW[NMeNle][NMeNle]ACG-NH2
modifications: thioether N-14
SMILES: CCCC[C@H]1C(=O)N(C)[C@@H](CCCC)C(=O)N[C@@H](C)C(=O)N[C@H](C(=O)NCC(N)=O)CSCC(=O)N[C@@H](Cc2ccccc2)C(=O)N(C)[C@@H](C)C(=O)N[C@@H](CC(N)=O)C(=O)N2CCC[C@H]2C(=O)N[C@@H](Cc2c[nH]cn2)C(=O)N[C@@H](CC(C)C)C(=O)N(C)CC(=O)N[C@@H](Cc2c[nH]c3ccccc23)C(=O)N[C@@H](CO)C(=O)N[C@@H](Cc2c[nH]c3ccccc23)C(=O)N1C
B7: Compound No. 25 (peptide)
peptide: {CH2CO}-W[NMeA]NPHL[Sar]WSW[NMeNle][NMeNle]RCG-NH2
modifications: thioether N-14
SMILES: CCCC[C@H]1C(=O)N(C)[C@@H](CCCC)C(=O)N[C@@H](CCCNC(=N)N)C(=O)N[C@H](C(=O)NCC(N)=O)CSCC(=O)N[C@@H](Cc2c[nH]c3ccccc23)C(=O)N(C)[C@@H](C)C(=O)N[C@@H](CC(N)=O)C(=O)N2CCC[C@H]2C(=O)N[C@@H](Cc2c[nH]cn2)C(=O)N[C@@H](CC(C)C)C(=O)N(C)CC(=O)N[C@@H](Cc2c[nH]c3ccccc23)C(=O)N[C@@H](CO)C(=O)N[C@@H](Cc2c[nH]c3ccccc23)C(=O)N1C
B8: Compound No. 17 (peptide)
peptide: {CH2CO}-F[NMeA]NPHL[Sar]WSA[NMeNle][NMeNle]RCG-NH2
modifications: thioether N-14
SMILES: CCCC[C@H]1C(=O)N(C)[C@@H](CCCC)C(=O)N[C@@H](CCCNC(=N)N)C(=O)N[C@H](C(=O)NCC(N)=O)CSCC(=O)N[C@@H](Cc2ccccc2)C(=O)N(C)[C@@H](C)C(=O)N[C@@H](CC(N)=O)C(=O)N2CCC[C@H]2C(=O)N[C@@H](Cc2c[nH]cn2)C(=O)N[C@@H](CC(C)C)C(=O)N(C)CC(=O)N[C@@H](Cc2c[nH]c3ccccc23)C(=O)N[C@@H](CO)C(=O)N[C@@H](C)C(=O)N1C
B9: Compound No. 11 (peptide)
peptide: {CH2CO}-F[NMeA]NPHA[Sar]WSW[NMeNle][NMeNle]RCG-NH2
modifications: thioether N-14
SMILES: CCCC[C@H]1C(=O)N(C)[C@@H](CCCC)C(=O)N[C@@H](CCCNC(=N)N)C(=O)N[C@H](C(=O)NCC(N)=O)CSCC(=O)N[C@@H](Cc2ccccc2)C(=O)N(C)[C@@H](C)C(=O)N[C@@H](CC(N)=O)C(=O)N2CCC[C@H]2C(=O)N[C@@H](Cc2c[nH]cn2)C(=O)N[C@@H](C)C(=O)N(C)CC(=O)N[C@@H](Cc2c[nH]c3ccccc23)C(=O)N[C@@H](CO)C(=O)N[C@@H](Cc2c[nH]c3ccccc23)C(=O)N1C
B10: Compound No. 7 (peptide)
peptide: {CH2CO}-F[Sar]NPHL[Sar]WSW[NMeNle][NMeNle]RCG-NH2
modifications: thioether N-14
SMILES: CCCC[C@H]1C(=O)N(C)[C@@H](CCCC)C(=O)N[C@@H](CCCNC(=N)N)C(=O)N[C@H](C(=O)NCC(N)=O)CSCC(=O)N[C@@H](Cc2ccccc2)C(=O)N(C)CC(=O)N[C@@H](CC(N)=O)C(=O)N2CCC[C@H]2C(=O)N[C@@H](Cc2c[nH]cn2)C(=O)N[C@@H](CC(C)C)C(=O)N(C)CC(=O)N[C@@H](Cc2c[nH]c3ccccc23)C(=O)N[C@@H](CO)C(=O)N[C@@H](Cc2c[nH]c3ccccc23)C(=O)N1C
B11: Compound No. 16 (peptide)
peptide: {CH2CO}-F[NMeA]NPHL[Sar]WAW[NMeNle][NMeNle]RCG-NH2
modifications: thioether N-14
SMILES: CCCC[C@H]1C(=O)N(C)[C@@H](CCCC)C(=O)N[C@@H](CCCNC(=N)N)C(=O)N[C@H](C(=O)NCC(N)=O)CSCC(=O)N[C@@H](Cc2ccccc2)C(=O)N(C)[C@@H](C)C(=O)N[C@@H](CC(N)=O)C(=O)N2CCC[C@H]2C(=O)N[C@@H](Cc2c[nH]cn2)C(=O)N[C@@H](CC(C)C)C(=O)N(C)CC(=O)N[C@@H](Cc2c[nH]c3ccccc23)C(=O)N[C@@H](C)C(=O)N[C@@H](Cc2c[nH]c3ccccc23)C(=O)N1C
B12: Compound No. 13 (peptide)
peptide: {CH2CO}-F[NMeA]NPHL[NMeA]WSW[NMeNle][NMeNle]RCG-NH2
modifications: thioether N-14
SMILES: CCCC[C@H]1C(=O)N(C)[C@@H](CCCC)C(=O)N[C@@H](CCCNC(=N)N)C(=O)N[C@H](C(=O)NCC(N)=O)CSCC(=O)N[C@@H](Cc2ccccc2)C(=O)N(C)[C@@H](C)C(=O)N[C@@H](CC(N)=O)C(=O)N2CCC[C@H]2C(=O)N[C@@H](Cc2c[nH]cn2)C(=O)N[C@@H](CC(C)C)C(=O)N(C)[C@@H](C)C(=O)N[C@@H](Cc2c[nH]c3ccccc23)C(=O)N[C@@H](CO)C(=O)N[C@@H](Cc2c[nH]c3ccccc23)C(=O)N1C
B13: Compound No. 49 (peptide)
peptide: {CH2CO}-F[NMeA]N[αMeP]HL[Sar]WSW[NMeNle][NMeNle]RCG-NH2
modifications: thioether N-14
SMILES: CCCC[C@H]1C(=O)N(C)[C@@H](CCCC)C(=O)N[C@@H](CCCNC(=N)N)C(=O)N[C@H](C(=O)NCC(N)=O)CSCC(=O)N[C@@H](Cc2ccccc2)C(=O)N(C)[C@@H](C)C(=O)N[C@@H](CC(N)=O)C(=O)N2CCC[C@@]2(C)C(=O)N[C@@H](Cc2c[nH]cn2)C(=O)N[C@@H](CC(C)C)C(=O)N(C)CC(=O)N[C@@H](Cc2c[nH]c3ccccc23)C(=O)N[C@@H](CO)C(=O)N[C@@H](Cc2c[nH]c3ccccc23)C(=O)N1C

Results on 13 molecules are retold here after patent US20140294898A1 (published 2014).

Positions of bridges follow the written chain, without caps; N, C: chain ends. Non-standard residues stand in square brackets, D forms with d. NMeNle = CCCC[C@H](NC)C(=O)O; αMeP = C[C@@]1(C(=O)O)CCCN1; NMeA = CN[C@@H](C)C(=O)O; dNMeA = CN[C@H](C)C(=O)O; Aze = O=C(O)[C@@H]1CCN1; Sar = CNCC(=O)O

The target of this test is T1, hPDL1(19-239)-TVMV-His (human, UniProt Q9NZQ7 19-239).
T1 construct: The text says amino acids 18-239, the construct name says 19-239; Expressed in HEK293T cells; Used at 10 nM final in the HTRF assay; also called PD-L1-His; PD-L1-TVMV-His
T1 sequence (Q9NZQ7 other isoform, or with tags, fused parts or gaps limits assumed): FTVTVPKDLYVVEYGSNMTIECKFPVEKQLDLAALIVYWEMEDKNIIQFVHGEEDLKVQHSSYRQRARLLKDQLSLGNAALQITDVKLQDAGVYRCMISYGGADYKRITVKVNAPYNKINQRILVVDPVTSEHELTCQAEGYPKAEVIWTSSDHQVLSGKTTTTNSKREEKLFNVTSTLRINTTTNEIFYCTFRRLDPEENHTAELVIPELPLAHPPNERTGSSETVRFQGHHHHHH
The experiment in a line: HTRF competition, PD-1-Ig binding to PD-L1-His. As for the experimental part:
All binding studies were performed in an HTRF assay buffer consisting of dPBS supplemented with 0.1% (w/v) bovine serum albumin and 0.05% (v/v) Tween-20. […] PD-L1 fusion proteins from either human, cynomologous macaques, or mouse were used. HTRF detection was achieved using europium crypate-labeled anti-Ig monoclonal antibody (1 nM final) and allophycocyanin (APC) labeled anti-His monoclonal antibody (20 nM final). Antibodies were diluted in HTRF detection buffer and 5 μl was dispensed on top of binding reaction. The reaction was allowed to equilibrate for 30 minutes and signal (665 nm/620 nm ratio) was obtained using an EnVision fluorometer. […]
HTRF Experiments were performed essentially as outlined supra. Variant macrocyclic peptides were created as outlined herein.
For orientation: In TR-FRET formats the signal depends on donor and acceptor labels being close together.
With B1, the IC50 – broadly, the concentration that gives 50% inhibition – stood at 71 nM. In other words, the double-digit nanomolar range.

For B2, the IC50 was determined as 6500 nM.

The molecule B3 gave an IC50 of 59 nM.

Regarding B4, the IC50 worked out at 31 nM.

Molecule B5 showed an IC50 of 16 nM.

Regarding B6, the IC50 was 3 nM.

The molecule B7 showed an IC50 of 27 nM. This IC50 is about 9-fold higher than that of the molecule before.

Turning to B8, the IC50 turned out to be 7540 nM.

B9: the IC50 came to 31 nM.

The molecule B10 returned an IC50 of 55 nM.

Molecule B11 came in with an IC50 of 5 nM. This IC50 lies about 11-fold lower than the previous one.

Consider B12, for which the IC50 was determined as 16 nM. Compared with the last molecule, the IC50 is about 3.2-fold higher.

The molecule B13 had an IC50 of 34 nM.
